In US20100322935A1 (Hoffmann-La Roche, published 2010):

Key:
[1] = target: T1, human EGFR ECD (Extracellular Domain) (human, UniProt P00533 25-645); assay: SPR (Biacore T100)
T1 construct: extracellular domain; also called EGFR (HER1); HER1
Source text: (§1) Briefly, for affinity measurements Goat-Anti-Human IgG, JIR 109-005-098 antibodies were immobilized on a CM5 chip via amine coupling for presentation of the antibodies against human ECD-Fc tagged. […] Biacore T100 Evaluation Software version 1.1.1 was used for analysis of sensorgrams and for calculation of affinity data.
(§2) Binding of the generated antibodies to human ANGPT2 and VEGF was also investigated by surface plasmon resonance using a BIACORE T100 instrument (GE Healthcare Biosciences AB, Uppsala, Sweden). Briefly, for affinity measurements goat<hIgG-Fcg> polyclonal antibodies were immobilized on a CM5 or CM4 chip via amine coupling for presentation of the antibodies against human ANGPT2 and VEGF. […] Biacore T100 Evaluation Software version 1.1.1 was used for analysis of sensorgrams and for calculation of affinity data.

[2] = target: T2, human VEGF165/VEGF121-His (human, UniProt P15692-4 27-191, limits assumed); assay: SPR (Biacore T100)
T2 construct: R&D Systems or in house purified; also called VEGF-A; hVEGF
Source text: as §1, §2

T2 sequence (P15692 other isoform, or with tags, fused parts or gaps limits assumed): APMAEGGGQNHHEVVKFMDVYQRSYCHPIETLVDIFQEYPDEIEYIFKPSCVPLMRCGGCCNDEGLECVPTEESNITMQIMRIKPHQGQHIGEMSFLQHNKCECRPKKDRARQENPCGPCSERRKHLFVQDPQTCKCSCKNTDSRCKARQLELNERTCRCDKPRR

B1: trispecific and tetravalent antibody recognizing Angiopoietin-2, VEGF-A, and EGFR according to FIG. 5a (antibody, human IgG1, kappa)
light 1: QPGLTQPPSVSVAPGQTARITCGGNNIGSKSVHWYQQKPGQAPVLVVYDDSDRPSGIPERFSGSNSGNTATLTISRVEAGDEADYYCQVWDSSSDHYVFGTGTKVTVLRTVAAPSVFIFPPSDEQLKSGTASVVCLLNNFYPREAKVQWKVDNALQSGNSQESVTEQDSKDSTYSLSSTLTLSKADYEKHKVYACEVTHQGLSSPVTKSFNRGEC
heavy 1: not shown
light 2: DIQMTQSPSSLSASVGDRVTITCSASQDISNYLNWYQQKPGKAPKVLIYFTSSLHSGVPSRFSGSGSGTDFTLTISSLQPEDFATYYCQQYSTVPWTFGQGTKVEIKSSASTKGPSVFPLAPSSKSTSGGTAALGCLVKDYFPEPVTVSWNSGALTSGVHTFPAVLQSSGLYSLSSVVTVPSSSLGTQTYICNVNHKPSNTKVDKKVEPKSC
heavy 2: not shown
notes: Trispecific, tetravalent: four different chains, each once; CH1/CL (Ckappa) domain exchanged knobs-into-holes antibody; scFvs fused via a (G4S)4 connector; Expressed in HEK293F cells; also called trispecific antibody with disulfide stabilized scFv against EGFR on both heavy chains
Kd [1]: 6 nM
koff [1]: 0.00023 s⁻¹
kon [1]: 47000 M⁻¹ s⁻¹
Kd [2]: < 0.1 nM
koff [2]: < 1e-06 s⁻¹
kon [2]: 100000 M⁻¹ s⁻¹
